These results are taken from IntAct's records for PubMed 25066297.

The labels stand for the following.
B1: Probable thioesterase PNKD (Homo sapiens), Q8N490 (parent)
chain: MAAVVAATALKGRGARNARVLRGILAGATANKASHNRTRALQSHSSPEGKEEPEPLSPELEYIPRKRGKNPMKAVGLAWYSLYTRTWLGYLFYRQQLRRARNRYPKGHSKTQPRLFNGVKVLPIPVLSDNYSYLIIDTQAQLAVAVDPSDPRAVQASIEKEGVTLVAILCTHKHWDHSGGNRDLSRRHRDCRVYGSPQDGIPYLTHPLCHQDVVSVGRLQIRALATPGHTQGHLVYLLDGEPYKGPSCLFSGDLLFLSGCGRTFEGNAETMLSSLDTVLGLGDDTLLWPGHEYAEENLGFAGVVEPENLARERKMQWVQRQRLERKGTCPSTLGEERSYNPFLRTHCLALQEALGPGPGPTGDDDYSRAQLLEELRRLKDMHKSK

This experiment covers variants of B1. The following applies: with mk03_human MAPK3, P27361.
Sequence of mk03_human MAPK3, P27361 (P27361 whole entry): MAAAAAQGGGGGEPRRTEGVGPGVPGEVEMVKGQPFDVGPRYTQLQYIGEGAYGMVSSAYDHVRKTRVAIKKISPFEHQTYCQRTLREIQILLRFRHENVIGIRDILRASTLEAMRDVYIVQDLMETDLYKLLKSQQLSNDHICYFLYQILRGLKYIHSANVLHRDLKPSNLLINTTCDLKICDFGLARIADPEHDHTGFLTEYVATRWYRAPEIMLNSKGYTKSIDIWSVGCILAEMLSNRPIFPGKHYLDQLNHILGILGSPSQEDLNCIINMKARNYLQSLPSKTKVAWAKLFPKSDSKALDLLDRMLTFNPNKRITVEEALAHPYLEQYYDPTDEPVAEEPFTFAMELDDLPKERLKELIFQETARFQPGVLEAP
Consider S46A, for which the “effect of a mutation on the interaction” value is “disrupting interaction”.
